# IntAct's records for PubMed 16513117
# B1: Protein phosphatase Slingshot homolog 1 (Homo sapiens), Q8WYL5 (parent)
# chain: MALVTLQRSPTPSAASSSASNSELEAGSEEDRKLNLSLSESFFMVKGAALFLQQGSSPQGQRSLQHPHKHAGDLPQHLQVMINLLRCEDRIKLAVRLESAWADRVRYMVVVYSSGRQDTEENILLGVDFSSKESKSCTIGMVLRLWSDTKIHLDGDGGFSVSTAGRMHIFKPVSVQAMWSALQVLHKACEVARRHNYFPGGVALIWATYYESCISSEQSCINEWNAMQDLESTRPDSPALFVDKPTEGERTERLIKAKLRSIMMSQDLENVTSKEIRNELEKQMNCNLKELKEFIDNEMLLILGQMDKPSLIFDHLYLGSEWNASNLEELQGSGVDYILNVTREIDNFFPGLFAYHNIRVYDEETTDLLAHWNEAYHFINKAKRNHSKCLVHCKMGVSRSASTVIAYAMKEFGWPLEKAYNYVKQKRSITRPNAGFMRQLSEYEGILDASKQRHNKLWRQQTDSSLQQPVDDPAGPGDFLPETPDGTPESQLPFLDDAAQPGLGPPLPCCFRRLSDPLLPSPEDETGSLVHLEDPEREALLEEAAPPAEVHRPARQPQQGSGLCEKDVKKKLEFGSPKGRSGSLLQVEETEREEGLGAGRWGQLPTQLDQNLLNSENLNNNSKRSCPNGMEDDAIFGILNKVKPSYKSCADCMYPTASGAPEASRERCEDPNAPAICTQPAFLPHITSSPVAHLASRSRVPEKPASGPTEPPPFLPPAGSRRADTSGPGAGAALEPPASLLEPSRETPKVLPKSLLLKNSHCDKNPPSTEVVIKEESSPKKDMKPAKDLRLLFSNESEKPTTNSYLMQHQESIIQLQKAGLVRKHTKELERLKSVPADPAPPSRDGPASRLEASIPEESQDPAALHELGPLVMPSQAGSDEKSEAAPASLEGGSLKSPPPFFYRLDHTSSFSKDFLKTICYTPTSSSMSSNLTRSSSSDSIHSVRGKPGLVKQRTQEIETRLRLAGLTVSSPLKRSHSLAKLGSLTFSTEDLSSEADPSTVADSQDTTLSESSFLHEPQGTPRDPAATSKPSGKPAPENLKSPSWMSKS
# Variants of: B1
# Conditions: with actb_rabit ACTB
row,Variant,effect of a mutation on the interaction
1,W458A,disrupting interaction
